Experimental data reported in publication PMC11078644, “Nesprin-2 is a novel scaffold protein for telethonin and FHL-2 in the cardiomyocyte sarcomere” (The Journal of Biological Chemistry, 2024).

B1: HA-tagged telethonin WT, purified recombinant protein, without PKD pre-treatment [not stated] / GST-nesprin-2 SR51-53 (amino acids 6018-6354) [human] (parent)
chain 1: MATSELSCEVSEENCERREAFWAEWKDLTLSTRPEEGCSLHEEDTQRHETYHQQGQCQVLVQRSPWLMMRMGILGRGLQEYQLPYQRVLPLPIFTPAKMGATKEEREDTPIQLQELLALETALGGQCVDRQEVAEITKQLPPVVPVSKPGALRRSLSRSMSQEAQRG
chain 2: KETFAFIQQLDKNMSNLRTWLARIESELSKPVVYDVCDDQEIQKRLAEQQDLQRDIEQHSAGVESVFNICDVLLHDSDACANETECDSIQQTTRSLDRRWRNICAMSMERRMKIEETWRLWQKFLDDYSRFEDWLKSAERTAACPNSSEVLYTSAKEELKRFEAFQRQIHERLTQLELINKQYRRLARENRTDTASRLKQMVHEGNQRWDNLQRRVTAVLRRLRHFTNQREEFEGTRESILVWLTEMDLQLTNVEHFSESDADDKMRQLNGFQQEITLNTNKIDQLIVFGEQLIQKSEPLDAVLIEDELEELHRYCQEVFGRVSRFHRRLTSCTPGL

Variants of: B1
Experiment: GST pull-down, densitometry
Details: with GST-nesprin-2 SR51-53 (amino acids 6018-6354) [human]; without PKD pre-treatment (P-); n = 5; parent: 1; read off a plot

Row | Variant | ratio to parent
1 | chain 1 S157A S161A | 1.1
